Here are results for three molecules from patent US12624112 (MABWELL SHANGHAI BIOSCIENCE, dated 2026).

Residue numbers refer to the chain shown, from its start.

One may read the Kd as the free concentration of one partner at which half of the binding sites on the other are occupied at equilibrium, for simple one-to-one binding. As usually defined, the koff is the rate constant with which the complex falls apart. The low end stands for a long-lived complex, the high end for a short-lived complex. As usually defined, the kon is a measure of how fast the partners come together. A high value points to fast association. As a reminder, the EC50 is the midpoint of the concentration-response curve. A low value points to an effect from little substance. Broadly, the IC50 is the concentration that inhibits the measured activity by half. A lower IC50 goes with higher potency.

The labels stand for the following.
T1: Human ST2-his (human, UniProt Q01638 19-328)
T1 construct: Expressed in CHO-K1; also called human ST2 fused with a 6-histidine tag at the C-terminus
T1 sequence: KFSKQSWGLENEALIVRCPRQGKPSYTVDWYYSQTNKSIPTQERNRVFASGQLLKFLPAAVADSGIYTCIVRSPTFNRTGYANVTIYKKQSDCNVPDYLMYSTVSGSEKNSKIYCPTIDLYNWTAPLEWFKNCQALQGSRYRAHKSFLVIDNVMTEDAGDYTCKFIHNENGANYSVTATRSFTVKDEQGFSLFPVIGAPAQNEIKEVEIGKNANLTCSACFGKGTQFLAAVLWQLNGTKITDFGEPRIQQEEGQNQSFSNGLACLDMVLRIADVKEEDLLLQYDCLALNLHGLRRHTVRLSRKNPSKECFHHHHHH

T2: Cyno ST2-fc (cyno; human, UniProt A0A2K5UDB8 19-331)
T2 construct: also called cyno ST2 fused with a human IgG1 Fc tag at the C-terminus
T2 sequence: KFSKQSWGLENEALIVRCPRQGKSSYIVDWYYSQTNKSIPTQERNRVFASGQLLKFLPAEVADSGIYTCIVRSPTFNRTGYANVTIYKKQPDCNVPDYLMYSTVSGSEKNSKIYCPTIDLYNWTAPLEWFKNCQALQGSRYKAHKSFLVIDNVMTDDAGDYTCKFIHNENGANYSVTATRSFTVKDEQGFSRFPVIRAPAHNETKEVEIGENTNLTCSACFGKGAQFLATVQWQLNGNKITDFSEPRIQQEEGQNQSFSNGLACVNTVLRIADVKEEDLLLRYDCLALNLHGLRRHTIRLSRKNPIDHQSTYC

T3: ST2 on KU812 cells (UniProt Q01638 19-556, limits assumed)
T3 sequence (looked up): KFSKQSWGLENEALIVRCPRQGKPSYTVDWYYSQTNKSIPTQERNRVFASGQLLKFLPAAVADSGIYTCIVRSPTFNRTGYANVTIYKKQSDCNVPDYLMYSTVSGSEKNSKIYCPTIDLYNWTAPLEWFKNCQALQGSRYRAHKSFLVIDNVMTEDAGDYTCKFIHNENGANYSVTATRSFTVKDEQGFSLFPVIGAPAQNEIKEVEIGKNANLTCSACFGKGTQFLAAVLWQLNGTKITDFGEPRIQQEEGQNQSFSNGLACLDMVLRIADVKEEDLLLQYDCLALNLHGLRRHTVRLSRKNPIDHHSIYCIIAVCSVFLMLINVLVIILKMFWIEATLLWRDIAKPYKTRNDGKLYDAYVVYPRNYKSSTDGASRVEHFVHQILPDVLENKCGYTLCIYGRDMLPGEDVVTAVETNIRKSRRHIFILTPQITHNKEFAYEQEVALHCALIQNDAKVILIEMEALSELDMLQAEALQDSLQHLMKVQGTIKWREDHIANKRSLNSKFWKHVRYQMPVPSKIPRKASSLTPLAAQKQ

B1: 5888-379H1+L2 (antibody, V domains shown)
VH: QIQLAQSGPELKKPGETVKISCKASGYTFINYGMNWVKQAPGKDLKWMGWINTYIGEPTYGDNFKGRFAFSLETSASTVYLQINNLKNEDTATYFCAREGDGFAYWGQGTLVTVSA
VL: DIVMTQSPPSLSVSVGEKVTMSCKSSQSLLYSGNQNNYLAWYQQKPGQPPKLLIYGASTRESGVPDRFTGSGSGTDFTLTISSVQAEDLAVYYCQNDHSYPYTFGGGTKLEIK
notes: murine antibody
B2: 5888-153H1+L2 (antibody, V domains shown)
VH: QVQLQQSGAELVRPGASVTLSCKASGYTFTDYELHWVKQTPVHGLEWIGTIDPETGDTVYNQKFKAKAILTADKSSSTAYMEFRSLTSEDSAVCYCTRAFYNDYDDGFAYWGQGTLVTVSA
VL: QIVMTQTPAIMSASPGEKVTMTCSVSSSVSYMHWYQQKSGTSPKRWIYDTSKLASGVPARFSGSGSGTSYSLTINNMEAEDAATYYCQQWNSSPLTFGAGTKLELK
notes: murine antibody
B3: 5888-357H+L (antibody, V domains shown)
VH: QVQLQQSVTELVRPGASVTLSCKASGYRFTDSEMHWVKQTPVHGLEWIGTIDPETGGTVYNQKFKGKAKLTADRSSSTVSMELRSLTSEDSAVYYCTRAFYNDFDDGFAYWGQGTLVTVSA
VL: B2 VL with T7S, M21L, V25A, S27T, N75S, N76S, N91S, S93N
notes: murine antibody

The target in the first test is T1, Human ST2-his. Description: SPR Biacore X100, antibody on protein A, ST2-his analyte. The procedure:
On the basis of the results of the quantitative screenings of murine antibodies above together, 19 murine antibodies were selected for affinity determination and in vitro pharmacological study. The experiment on the interaction between the anti-human ST2 antibodies and human ST2-his was performed using Biacore X100, and was carried out at 25° C. in HBS-EP (1×) buffer (pH 7.4).
Each anti-human ST2 antibody was diluted to 10 nM and captured on the surface of a protein A chip (for a capture time of 60 s). […] Association was monitored for 4 min and dissociation for 10 min, and the sensor surface was regenerated by injecting a solution of glycine at pH 2.0. Data generated for kinetics and affinity assay were analyzed using BIAevaluation software.
B1 showed a Kd of 571 pM, a koff of 0.000546 s⁻¹ and a kon of 957000 M⁻¹ s⁻¹.

The molecule B2 showed a Kd of 94.3 pM, a koff of 0.000864 s⁻¹ and a kon of 9.17e+06 M⁻¹ s⁻¹.

As to B3, the dissociation constant Kd was determined as 160 pM, the koff stood at 0.0007 s⁻¹ and the kon is 4.38e+06 M⁻¹ s⁻¹.

The next test concerns the target T2, Cyno ST2-fc. Description: ELISA, coated cyno ST2-fc. The procedure: Cyno ST2-fc was diluted with a coating buffer to 1 μg/mL, added into 96-well plates at 50 μL/well and coated overnight at 4° C. Next day, the coated plates were taken, washed with PB ST for 3 times, and then incubated using a blocking buffer at room temperature for 1 hr. Subsequently, the plates were washed with PBST for 3 times again. Starting at 1000 ng/mL, each murine antibody was diluted 3-fold to obtain serial dilutions of 8 concentrations in total which were then added into the 96-well plates at 50 μL/well. The plates were incubated at room temperature for 1 hr, washed with PB ST for 3 times; and then a goat anti-mouse secondary antibody (1:10000) was added at 50 μL/well into the 96-well plates which subsequently were incubated at room temperature for 1 hr. The 96-well plates were washed with PB ST for 3 times, and TMB was added at 50 μL/well to develop color in dark for 10 min. Afterwards, 2 M sulfuric acid was added to stop reaction; and GD values at 450 nm were read by a microplate reader. It can be seen that the murine antibodies can bind to cyno ST2, with a binding trendency consistent with the binding to human ST2.
For orientation: ELISA stands for enzyme-linked immunosorbent assay.
For the molecule B1, the EC50 came out at 0.0602 µg/mL and the “Relative activity (%)” value is 40.6%.

Consider B2, for which the midpoint of the response, the EC50, lay at 0.0303 µg/mL and the “Relative activity (%)” value came to 80.7%.

Take B3: the EC50 stood at 0.0192 µg/mL and the “Relative activity (%)” value was 127%.

The next test concerns the target T3, ST2 on KU812 cells. Description: cell-based or functional assay.
As to B1, the “Maximum inhibition rate (%), KU812 IL-5 production” value (from here on “Maximum inhibition rate (%)”) is 92.7% and the “Relative activity (%), KU812 IL-5 production” value came out at 19.2%.

As for B2, the “Maximum inhibition rate (%)” value was 86% and the “Relative activity (%), KU812 IL-5 production” value was found to be 115%.

B3: the “Maximum inhibition rate (%)” value was 71% and the “Relative activity (%), KU812 IL-5 production” value amounted to 98.5%.

Another test concerns the target T2, Cyno ST2-fc. The test can be described thus: SPR Biacore X100, antibody on CM5, cyno ST2-fc analyte. The procedure:
The experiment on the interactions between the anti-human ST2 antibodies and cyno ST2-fc was performed using Biacore X100, and was carried out at 25° C. in HBS-EP (1×) buffer (pH 7.4). Each antibody was immobilized on the surface of CM5 chip using an amino coupling kit. Following the antibody immobilization, a solution of cyno ST2-fc (2-fold gradient dilution from a starting concentration of 8 nM, to obtain 6 concentrations in total; the starting concentration might be increased if the signal of some sample was too low) was injected. Association was monitored for 2 min and dissociation for 10 min, and the sensor surface was regenerated by injecting a solution of glycine at pH 1.5.
On to B1, for which the Kd was found to be 31.7 pM, the koff worked out at 0.000152 s⁻¹ and the kon came to 4.78e+06 M⁻¹ s⁻¹.

B2: the Kd is 143 pM, the koff amounted to 0.00139 s⁻¹ and the kon was determined as 9.68e+06 M⁻¹ s⁻¹.

Consider B3, for which the Kd was determined as 129 pM, the koff stood at 0.000826 s⁻¹ and the kon was 6.41e+06 M⁻¹ s⁻¹.

Another test has as its target Human ST2-fc (human) (UniProt Q01638). Description: competition ELISA, coated ST2-fc, competitor IL33-his.
Consider B1, for which the IC50 worked out at 0.83 µg/mL and the Relative activity (%) compared with CNTO7160 was 70.1%.

Consider B2, for which the IC50 was found to be 0.75 µg/mL and the Relative activity (%) compared with CNTO7160 came out at 78.4%.

Turning to B3, the IC50 worked out at 0.62 µg/mL and the Relative activity (%) compared with CNTO7160 worked out at 94.7%.

A further test has as its target T1, Human ST2-his. The test can be described thus: ELISA, coated human ST2-his. The procedure:
Human ST2-his was diluted with a coating buffer to 1 μg/mL, added into plates at 50 μL/well, and coated overnight at 4° C. Next day, the coated plates were taken, washed with PBST for 3 times, and then incubated using a blocking buffer at room temperature for 1 hr. Subsequently, the plates were washed with PBST for 3 times again. Starting at 100 ng/mL, each murine antibody was diluted 3-fold to obtain serial dilutions of 8 concentrations in total which were then added into the 96-well plates at 50 μL/well. The plates were incubated at room temperature for 1 hr, washed with PBST for 3 times; and then a goat anti-mouse secondary antibody (1:10000) was added at 50 μL/well into the 96-well plates which subsequently were incubated at room temperature for 1 hr. The 96-well plates were washed with PBST for 3 times, and TMVB was added at 50 μL/well to develop color in dark for 10 min. Afterwards, 2 M sulfuric acid was added to stop reaction; and GD values at 450 nm were read by a micro-plate reader.
Take B1: the EC50 came out at 0.0295 µg/mL and the “Relative activity (%) compared with CNTO7160” value was 33.9%.

On to B2, for which the EC50 turned out to be 0.0209 µg/mL and the “Relative activity (%) compared with CNTO7160” value amounted to 87.4%.

For the molecule B3, the EC50 worked out at 0.0113 µg/mL and the “Relative activity (%) compared with CNTO7160” value amounted to 124%.

A further test concerns the target T3, ST2 on KU812 cells. The test can be described thus: cell-based or functional assay. This is another data set of the same source.
For B1, the “IC50, activation of KU812-NF-κB reporter gene by IL33” value (from here on “IC50, activation”) turned out to be 0.391 µg/mL and the “Relative activity (%) compared with CNTO7160, KU812-NF-κB reporter” value (shortened to “Relative activity (%) … KU812-NF-κB reporter”) worked out at 64.2%.

Consider B2, for which the “IC50, activation” value amounted to 0.0495 µg/mL and the “Relative activity (%) … KU812-NF-κB reporter” value amounted to 506%.

On to B3, for which the “IC50, activation” value is 0.0552 µg/mL and the “Relative activity (%) … KU812-NF-κB reporter” value came to 454%.
